The target of assay [1] is ΔN15MsDps2 (MsDps2 with the first 15 N-terminal amino acids deleted) (Mycobacterium smegmatis). Put plainly: negative-stain electron microscopy.
Assay [2] deals with Mycobacterium smegmatis Dps2 (MsDps2), wild type (Mycobacterium smegmatis). Put plainly: SEC.

Turning to “ΔN15MsDps2 (MsDps2 with the first 15 N-terminal amino acids deleted) (domain or fragment)”, the stoichiometry N in assay [1] was 12.

With “Mycobacterium smegmatis Dps2 (MsDps2), wild type (natural protein)”, in assay [2], the stoichiometry N is 12.

Values taken from publication doi:10.1101/2023.01.16.523357.
